# Reference: article PMC10104585, “Yeast PIC-Mediator structure with RNA polymerase II C-terminal domain” (Proceedings of the National Academy of Sciences of the …, 2023)
# Target: T1, Rpb1 (RNA polymerase II subunit carrying the C-terminal repeat domain) (S. cerevisiae, UniProt P04050 1-1733)
# T1 construct: Rpb1, subunit of RNA polymerase II, S. cerevisiae, with its C-terminal repeat domain (CTD) of 26 heptapeptide repeats of consensus YSPTSPS; Stood in the assay as a subunit of Pol II within the PIC; CTD peptides 1, 2 and 3 are stretches of its CTD seen in the map (6, 3 and 2 repeats); their register within the CTD could not be assigned; also called Rpb1 CTD; Pol II CTD
# T1 sequence (P04050 whole entry, the tested form may be a part): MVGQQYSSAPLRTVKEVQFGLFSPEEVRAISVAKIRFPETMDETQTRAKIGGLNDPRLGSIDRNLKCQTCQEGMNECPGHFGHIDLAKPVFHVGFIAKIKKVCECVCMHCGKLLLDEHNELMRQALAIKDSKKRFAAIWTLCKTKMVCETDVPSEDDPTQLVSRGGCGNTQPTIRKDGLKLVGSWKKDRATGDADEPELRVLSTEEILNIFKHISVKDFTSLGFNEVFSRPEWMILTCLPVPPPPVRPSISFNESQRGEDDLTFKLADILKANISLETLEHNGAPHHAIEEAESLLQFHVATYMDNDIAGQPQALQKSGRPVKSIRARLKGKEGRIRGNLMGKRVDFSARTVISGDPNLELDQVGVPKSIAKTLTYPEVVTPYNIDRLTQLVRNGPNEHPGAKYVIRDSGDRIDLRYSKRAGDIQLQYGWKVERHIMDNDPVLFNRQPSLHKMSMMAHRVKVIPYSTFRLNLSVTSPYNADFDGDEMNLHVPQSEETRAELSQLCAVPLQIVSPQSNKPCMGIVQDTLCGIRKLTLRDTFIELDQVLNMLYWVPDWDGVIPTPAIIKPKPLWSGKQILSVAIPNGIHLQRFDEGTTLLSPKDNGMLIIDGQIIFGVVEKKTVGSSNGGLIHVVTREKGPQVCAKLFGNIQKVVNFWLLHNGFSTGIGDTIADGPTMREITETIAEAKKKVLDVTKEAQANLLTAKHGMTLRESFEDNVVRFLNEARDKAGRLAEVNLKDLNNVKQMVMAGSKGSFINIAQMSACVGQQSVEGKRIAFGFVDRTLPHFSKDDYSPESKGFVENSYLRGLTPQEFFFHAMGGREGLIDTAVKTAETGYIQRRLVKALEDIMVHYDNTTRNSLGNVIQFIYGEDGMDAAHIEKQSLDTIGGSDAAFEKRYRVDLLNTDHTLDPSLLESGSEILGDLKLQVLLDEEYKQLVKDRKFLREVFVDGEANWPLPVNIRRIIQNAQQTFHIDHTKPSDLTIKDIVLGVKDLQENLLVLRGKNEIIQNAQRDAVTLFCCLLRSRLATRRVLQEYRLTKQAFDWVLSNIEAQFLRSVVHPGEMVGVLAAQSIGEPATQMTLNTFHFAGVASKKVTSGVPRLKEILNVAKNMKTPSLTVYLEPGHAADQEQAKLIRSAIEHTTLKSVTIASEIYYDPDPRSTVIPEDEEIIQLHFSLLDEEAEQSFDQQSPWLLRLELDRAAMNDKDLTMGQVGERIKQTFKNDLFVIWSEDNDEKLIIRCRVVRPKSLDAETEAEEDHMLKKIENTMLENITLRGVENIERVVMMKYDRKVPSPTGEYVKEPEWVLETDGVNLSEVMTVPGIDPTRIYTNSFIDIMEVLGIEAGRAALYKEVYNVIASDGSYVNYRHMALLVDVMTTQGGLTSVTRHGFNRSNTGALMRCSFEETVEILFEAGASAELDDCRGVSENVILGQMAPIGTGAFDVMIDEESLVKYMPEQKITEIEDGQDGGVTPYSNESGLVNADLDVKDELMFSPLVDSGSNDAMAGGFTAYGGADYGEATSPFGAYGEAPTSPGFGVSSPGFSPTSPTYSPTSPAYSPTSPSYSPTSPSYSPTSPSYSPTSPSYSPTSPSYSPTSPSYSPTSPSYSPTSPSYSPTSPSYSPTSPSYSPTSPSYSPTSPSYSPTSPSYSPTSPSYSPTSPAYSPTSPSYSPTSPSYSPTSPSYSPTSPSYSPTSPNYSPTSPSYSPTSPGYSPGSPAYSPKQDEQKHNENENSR
# Test: cryo-EM structure; PIC-cMed-nucleosome complex assembled from the prepared factors on a His4 promoter / Widom-601 nucleosome template; GraFix sucrose gradient with glutaraldehyde cross-linking; 100 mM KCl, 25 mM K-HEPES pH 7.5, 2 mM MgCl2, 1 mM TCEP; reconstructions at 3.0 Å (PIC-cMed) and 3.6 Å (PIC-cMed-nucleosome), focused maps to 2.9-3.3 Å
# Settings: both partners purified
row,Binder,binding result
1,"Med6 (natural protein, S. cerevisiae, Med6, Mediator head module subunit, S. cerevisiae; Stood in the assay as a subunit of cMed) MNVTPLDELQWKSPEWIQVFGLRTENVLDYFAESPFFDKTSNNQVIKMQRQFSQLNDPNAAVNMTQNIMTLPDGKNGNLEEEFAYVDPARRQILFKYPMYMQLEEELMKLDGTEYVLSSVREPDFWVIRKQRRTNNSGVGSAKGPEIIPLQDYYIIGANIYQSPTIFKIVQSRLMSTSYHLNSTLESLYDLIEFQPSQGVHYKVPTDTSTTATAATNGNNAGGGSNKSSVRPTGGANMATVPSTTNVNMTVNTMGTGGQTIDNGTGRTGNGNMGITTEMLDKLMVTSIRSTPNYI",binds
2,"Med4 (natural protein, S. cerevisiae, Med4, Mediator middle module subunit, S. cerevisiae; Stood in the assay as a subunit of cMed) MSVQDTKAVEFSMGHIRSSSVSLVAEATSNTNSEDKLSKVQLYEDLCRYEDTLSKLVESVDRFKPNLDIAKDLIRTDEALFENVKLLAEYDNIYRNLQKIDKDSEELDSKTRKILEILNECHDELKALPMLEQVEFEKNTILQQRSKINSTELLDYATKLSKFTKIPPTFDKGAVGPNNFIWPAEDALRRGMLAMASLHSKELTRIPGEEVEETEVPTVPPSQSEEQKGQMAKKEGTPKTDSFIFDGTAKEVGDEADNTKDKEKEENNDDALDLDLDLFDPDDF",binds
3,"Med8 (natural protein, S. cerevisiae, Med8, Mediator head module subunit, S. cerevisiae; Stood in the assay as a subunit of cMed) MSQSTASLVPEGNQGSLQEDVSFDFNGVPGQALDAVRMRLAQLTHSLRRIRDEMSKAELPQWYTLQSQLNVTLSQLVSVTSTLQHFQETLDSTVVYPLPKFPTTSHESLVTTLLRKKNIPEVDEWMKYVRETSGVTTALLKDEEIEKLLQQDREITNWARTTFRNEYGKHDFKNEESLSEEHASLLVRDSKPSKPFNVDDVLKFTFTGEKPIITGSTSTSSSN",binds
4,"Med7 (natural protein, S. cerevisiae, UniProt Q08278 1-222, looked up, Med7, Mediator middle module subunit, S. cerevisiae; Stood in the assay as a subunit of cMed) MSNDPGNEVSSLYPPPPPYVKFFTQSNLEKLPKYKEKKAASAKQTAPNNSNGGSEEEITCALDYLIPPPMPKNQQYRAFGSIWQVKDQLPDLESMGLTQLYKKSTENESTNYQYKIQELRKLLKSLLLNYLELIGVLSINPDMYERKVENIRTILVNIHHLLNEYRPHQSRESLIMLLEEQLEYKRGEIREIEQVCKQVHDKLTSIQDTLRTGSQSPPSSSQ",binds
5,"Med21 (natural protein, S. cerevisiae, Med21, Mediator subunit (hook domain), S. cerevisiae; Stood in the assay as a subunit of cMed) MTDRLTQLQICLDQMTEQFCATLNYIDKNHGFERLTVNEPQMSDKHATVVPPEEFSNTIDELSTDIILKTRQINKLIDSLPGVDVSAEEQLRKIDMLQKKLVEVEDEKIEAIKKKEKLLRHVDSLIEDFVDGIANSKKST",binds
6,"Med17 (natural protein, S. cerevisiae, Med17, Mediator head module subunit, S. cerevisiae; Stood in the assay as a subunit of cMed) MTTEDPDSNHLSSETGIKLALDPNLITLALSSNPNSSLHSPTSDEPVPESAGKADTSIRLEGDELENKTKKDNDKNLKFLKNKDSLVSNPHEIYGSMPLEQLIPIILRQRGPGFKFVDLNEKELQNEIKQLGSDSSDGHNSEKKDTDGADENVQIGEDFMEVDYEDKDNPVDSRNETDHKTNENGETDDNIETVMTQEQFVKRRRDMLEHINLAMNESSLALEFVSLLLSSVKESTGMSSMSPFLRKVVKPSSLNSDKIPYVAPTKKEYIELDILNKGWKLQSLNESKDLLRASFNKLSSILQNEHDYWNKIMQSISNKDVIFKIRDRTSGQKLLAIKYGYEDSGSTYKHDRGIANIRNNIESQNLDLIPHSSSVFKGTDFVHSVKKFLRVRIFTKIESEDDYILSGESVMDRDSESEEAETKDIRKQIQLLKKIIFEKELMYQIKKECALLISYGVSIENENKVIIELPNEKFEIELLSLDDDSIVNHEQDLPKINDKRANLMLVMLRLLLVVIFKKTLRSRISSPHGLINLNVDDDILIIRPILGKVRFANYKLLLKKIIKDYVLDIVPGSSITETEVEREQPQENKNIDDENITKLNKEIRAFDKLLNIPRRELKINLPLTEHKSPNLSLMLESPNYCNALIHIKFSAGTEANAVSFDTTFSDFKEVEDFLHFIVAEYIQQKKV",binds
7,"Med10 (natural protein, S. cerevisiae, Med10, Mediator subunit (hook domain), S. cerevisiae; Stood in the assay as a subunit of cMed) MNGNSTNNEQLQQELATTQDQVASIIESFVELGVSIYDFPGTPEATKGMITNLQRNVDRLYKLNVRSNDPQSSLSKVDIPLEVVQYIEDGRNPDIYTREFVEAIRRSNQYQRGKMHGLKQLRDSLADKIVDEFPELKEPVEDIIKRTSPIDNVSNTH",binds
